Results taken from patent US12467929.

How the values were obtained:
[1] = biological target: recombinant UBE3A protein (Homo sapiens (Human)) (UniProt Q05086); test: 2-step Simoa; capture GTX; UBE3A 125 ng/ml
[2] = biological target: recombinant UBE3A protein (Homo sapiens (Human)) (UniProt Q05086); test: 2-step Simoa; capture GTX; UBE3A 0.122 ng/ml
[3] = biological target: recombinant UBE3A protein (Homo sapiens (Human)) (UniProt Q05086); test: Simoa; capture GTX; SBG 75 pm; UBE3A 4.00 ng/ml
[4] = biological target: recombinant UBE3A protein (Homo sapiens (Human)) (UniProt Q05086); test: Simoa; capture GTX; SBG 150 pm; UBE3A 0.0320 ng/ml
[5] = biological target: recombinant UBE3A protein (Homo sapiens (Human)) (UniProt Q05086); test: Simoa; capture GTX; 3E5 0.8 ug/ml; UBE3A 4.00 ng/ml
[6] = biological target: recombinant UBE3A protein (Homo sapiens (Human)) (UniProt Q05086); test: Simoa; capture GTX; 3E5 0.1 ug/ml; UBE3A 0.160 ng/ml
[7] = biological target: recombinant UBE3A protein (Homo sapiens (Human)) (UniProt Q05086); test: Simoa; capture GTX; 3E5 0.1 ug/ml; UBE3A 0.800 ng/ml
[8] = biological target: recombinant UBE3A protein (Homo sapiens (Human)) (UniProt Q05086); test: Simoa; capture GTX; 3E5 0.2 ug/ml; UBE3A 0.160 ng/ml
[9] = biological target: recombinant UBE3A protein (Homo sapiens (Human)) (UniProt Q05086); test: Simoa; capture GTX; 3E5 0.4 ug/ml; UBE3A 0.00128 ng/ml
[10] = biological target: recombinant UBE3A protein (Homo sapiens (Human)) (UniProt Q05086); test: Simoa; capture GTX; 3E5 0.4 ug/ml; UBE3A 0.00640 ng/ml
[11] = biological target: recombinant UBE3A protein (Homo sapiens (Human)) (UniProt Q05086); test: Simoa; capture GTX; 3E5 0.8 ug/ml; UBE3A 0.00128 ng/ml
[12] = biological target: recombinant UBE3A protein (Homo sapiens (Human)) (UniProt Q05086); test: Simoa head-to-head, Table 11; capture GTX; UBE3A 4.00 ng/ml
[13] = biological target: recombinant UBE3A protein (Homo sapiens (Human)) (UniProt Q05086); test: Simoa head-to-head, Table 11; capture GTX; UBE3A 0.032 ng/ml
[14] = biological target: recombinant UBE3A protein (Homo sapiens (Human)) (UniProt Q05086); test: Simoa head-to-head, Table 10; capture MS 2F6; UBE3A 100 ng/ml
[15] = biological target: recombinant UBE3A protein (Homo sapiens (Human)) (UniProt Q05086); test: Simoa head-to-head, Table 11; capture MS 2F6; UBE3A 500 ng/ml
[16] = biological target: recombinant UBE3A protein (Homo sapiens (Human)) (UniProt Q05086); test: 3-step Simoa, 120 min bead step; capture GTX; UBE3A 0.800 ng/ml
[17] = biological target: recombinant UBE3A protein (Homo sapiens (Human)) (UniProt Q05086); test: Simoa; capture GTX + helper beads; 3E5 0.2 ug/ml; UBE3A 0.00640 ng/ml
[18] = biological target: recombinant UBE3A protein (Homo sapiens (Human)) (UniProt Q05086); test: Simoa; capture GTX, no helper beads; 3E5 0.2 ug/ml; UBE3A 0.160 ng/ml
[19] = biological target: recombinant UBE3A protein (Homo sapiens (Human)) (UniProt Q05086); test: Simoa; capture GTX, no helper beads; 3E5 0.1 ug/ml; UBE3A 0.00128 ng/ml
[20] = biological target: recombinant UBE3A protein (Homo sapiens (Human)) (UniProt Q05086); test: Simoa; capture GTX, no helper beads; 3E5 0.4 ug/ml; UBE3A 0.00128 ng/ml

Sequence of UniProt Q05086 (Q05086 whole entry): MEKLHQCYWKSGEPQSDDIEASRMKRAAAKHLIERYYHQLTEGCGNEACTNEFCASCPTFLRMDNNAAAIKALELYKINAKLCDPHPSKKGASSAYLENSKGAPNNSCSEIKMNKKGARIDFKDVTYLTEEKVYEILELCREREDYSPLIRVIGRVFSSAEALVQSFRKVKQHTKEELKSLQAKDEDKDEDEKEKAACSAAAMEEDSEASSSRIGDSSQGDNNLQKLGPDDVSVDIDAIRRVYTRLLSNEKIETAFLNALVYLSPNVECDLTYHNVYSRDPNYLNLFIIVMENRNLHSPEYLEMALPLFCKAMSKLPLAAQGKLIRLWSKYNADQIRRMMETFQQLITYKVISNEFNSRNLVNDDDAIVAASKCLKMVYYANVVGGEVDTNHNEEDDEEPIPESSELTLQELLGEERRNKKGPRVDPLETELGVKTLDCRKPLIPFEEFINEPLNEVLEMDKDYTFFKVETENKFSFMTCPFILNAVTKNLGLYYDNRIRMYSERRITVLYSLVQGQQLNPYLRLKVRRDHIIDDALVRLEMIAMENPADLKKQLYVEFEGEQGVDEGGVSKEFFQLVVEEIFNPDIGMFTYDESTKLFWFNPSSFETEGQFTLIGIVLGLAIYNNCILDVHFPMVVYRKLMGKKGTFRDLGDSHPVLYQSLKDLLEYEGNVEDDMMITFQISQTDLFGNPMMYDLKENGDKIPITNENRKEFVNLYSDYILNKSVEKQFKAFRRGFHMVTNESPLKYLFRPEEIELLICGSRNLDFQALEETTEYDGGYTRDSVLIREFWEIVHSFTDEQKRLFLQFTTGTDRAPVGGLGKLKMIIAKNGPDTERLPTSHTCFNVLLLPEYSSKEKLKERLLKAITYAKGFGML

Substance: NB500-240 (Novus) (antibody)
- AEB1 [1]: 0.263
- AEB2 [1]: 0.241
- Ave AEB [1]: 0.252
- Signal to Background [1]: 77.1
- AEB1 [2]: 0.004
- AEB2 [2]: 0.0037
- Ave AEB [2]: 0.0039
- Signal to Background [2]: 1.18

Substance: anti-UBE3A antibody 3E5 (SAB1404508-100 ug, Millipore-Sigma)
- AEB1 [3]: 0.459
- AEB2 [3]: 0.46
- AEB3 [3]: 0.458
- Average AEB [3]: 0.459
- Signal to Background [3]: 105
- AEB1 [4]: 0.0262
- AEB2 [4]: 0.0285
- AEB3 [4]: 0.0282
- Average AEB [4]: 0.0276
- Signal to Background [4]: 2.08
- AEB1 [5]: 3.18
- AEB2 [5]: 3.38
- AEB3 [5]: 3.16
- Average AEB [5]: 3.24
- Signal to Background [5]: 26.4
- AEB1 [6]: 0.0828
- AEB2 [6]: 0.0846
- Average AEB [6]: 0.0837
- Signal to Background [6]: 4.34
- AEB1 [7]: 0.257
- AEB2 [7]: 0.27
- AEB3 [7]: 0.245
- Average AEB [7]: 0.257
- Signal to Background [7]: 13.3
- AEB1 [8]: 0.125
- AEB2 [8]: 0.123
- AEB3 [8]: 0.121
- Average AEB [8]: 0.123
- Signal to Background [8]: 3.14
- AEB1 [9]: 0.0769
- AEB2 [9]: 0.072
- AEB3 [9]: 0.0724
- Average AEB [9]: 0.0738
- Signal to Background [9]: 1.18
- AEB1 [10]: 0.0671
- AEB2 [10]: 0.0638
- AEB3 [10]: 0.0865
- Average AEB [10]: 0.0725
- Signal to Background [10]: 1.16
- AEB1 [11]: 0.109
- AEB2 [11]: 0.109
- AEB3 [11]: 0.112
- Average AEB [11]: 0.11
- Signal to Background [11]: 0.897
- AEB1 [12]: 0.269
- AEB2 [12]: 0.262
- Ave AEB [12]: 0.266
- Signal to Background [12]: 32.4
- AEB1 [13]: 0.0127
- AEB2 [13]: 0.0142
- Ave AEB [13]: 0.0135
- Signal to Background [13]: 1.65
- AEB1 [14]: 2.71
- AEB2 [14]: 2.88
- Ave AEB [14]: 2.8
- Signal to Background [14]: 207
- AEB1 [15]: 8.9
- AEB2 [15]: 8.6
- Ave AEB [15]: 8.75
- Signal to Background [15]: 2310
- AEB1 [16]: 0.151
- AEB2 [16]: 0.154
- Ave AEB [16]: 0.152
- Signal to Background [16]: 89.4
- AEB1 [17]: 0.0133
- AEB2 [17]: 0.0127
- Average AEB [17]: 0.013
- Signal to Background [17]: 1.34
- AEB1 [18]: 0.0675
- AEB2 [18]: 0.0686
- Average AEB [18]: 0.068
- Signal to Background [18]: 7.03
- AEB1 [19]: 0.005
- AEB2 [19]: 0.0075
- Average AEB [19]: 0.0062
- Signal to Background [19]: 1.09
- AEB1 [20]: 0.0195
- AEB2 [20]: 0.0213
- Average AEB [20]: 0.0204
- Signal to Background [20]: 1.04
